Source: patent publication US20190153059A1 (ADEPTHERA, published 2019)
Square brackets hold non-standard residues; d marks the D form. Ends that are not written are not given here. * marks the point of attachment. Palmitoyl = CCCCCCCCCCCCCCCC(=O)*; AEEA = NCCOCCOCC(=O)O

B1: SEQ ID NO: 31 (peptide)
peptide: Palmitoyl-KGCRFGTCTVQKLAHQIYQFTPAGRQDSAPVDPSSPHSY-NH2
modifications: cysteine pairing not given here
B2: SEQ ID NO: 45 (peptide)
peptide: Palmitoyl-GCRFGTCTVQKLAHQIYQFTDKDKDNSAPVDPSSPHSY-NH2
modifications: ends and bridges not checked
B3: SEQ ID NO: 53 (human ADM) (peptide)
peptide: Ac-FGCRFGTCTVQKLAHQIYQFTDKDKDNVAPRSKISPQGY-NH2
modifications: ends and bridges not checked
B4: SEQ ID NO: 60 (peptide)
peptide: Ac-KGCRFGTCTVQKLAHQIYQFTDKDKDNVAPVDPSSPHSY-NH2
modifications: ends and bridges not checked
B5: SEQ ID NO: 41 (peptide)
peptide: Ac-TK(Palmitoyl)KTLRTGCRFGTCTVQKLAHQIYQFTDKDKDNVAPVDPSSPHSY-NH2
modifications: ends and bridges not checked
B6: SEQ ID NO: 30 (peptide)
peptide: Palmitoyl-KGCRFGTCTVQKLAHQIYQFTDKDKDNSAPVDPSSPHSY-NH2
modifications: cysteine pairing not given here
B7: SEQ ID NO: 110 (peptide)
peptide: Palmitoyl-KGCRFGTCTVQKLAHQIYQFTDKDAPVDPSSPHSY-NH2
modifications: ends and bridges not checked
B8: SEQ ID NO: 62 (peptide)
peptide: [AEEA]K(Palmitoyl)GCRFGTCTVQKLAHLWQLMGPAGRQDSAPVDPSSPHSY-NH2
modifications: not fully specified; ends and bridges not checked
B9: SEQ ID NO: 56 (peptide)
peptide: Ac-VGCRFGTCTVQKLAHQIYQFTDKDKDNSAPVDPSSPHSY-NH2
modifications: ends and bridges not checked
B10: SEQ ID NO: 93 (peptide)
peptide: Ac-KGCRFGTCTVQKLAHQIYQFTDKDSAPVDPSSPHSY-NH2
modifications: cysteine pairing not given here
B11: SEQ ID NO: 40 (peptide)
peptide: Palmitoyl-KTKKTLRTGCRFGTCTVQKLAHQIYQFTDKDKDNVAPVDPSSPHSY-NH2
modifications: ends and bridges not checked
B12: SEQ ID NO: 35 (peptide)
peptide: Palmitoyl-KGCRFGTCTVQKLAHQIYQFTDKDKQDSAPVDPSSPHSY-NH2
modifications: ends and bridges not checked
B13: SEQ ID NO: 65 (peptide)
peptide: Ac-K(Palmitoyl)GCRFGTCTVQKLAHQIYQFTDKDKDNVAPRSKSSPHSY-NH2
modifications: ends and bridges not checked
B14: SEQ ID NO: 44 (peptide)
peptide: Palmitoyl-KCRFGTCTVQKLAHQIYQFTDKDKDNSAPVDPSSPHSY-NH2
modifications: ends and bridges not checked
B15: SEQ ID NO: 33 (peptide)
peptide: Ac-K(Palmitoyl)GCRFGTCTVQKLAHQIYQFTPAGRQDSAPVDPSSPHSY-NH2
modifications: cysteine pairing not given here
B16: SEQ ID NO: 47 (peptide)
peptide: KGCRFGTCTVQKLAHQIYQFTDKDKSAPVDPSSPHSY
modifications: miniPEG- at N-terminus; K(PAL); -NH2
B17: SEQ ID NO: 146 (peptide)
peptide: YGGFLRRIRPKLKKVQKLSAPVDPSSPHSY
modifications: Ace- at N-terminus; miniPEG between YGGFLRRIRPKLK and K(Pal); K(Pal); -NH2
B18: SEQ ID NO: 39 (peptide)
peptide: Ac-TK(Palmitoyl)KTLRTGCRFGTCTVQKLAHQIYQFTDKDKDNSAPVDPSSPHSY-NH2
modifications: ends and bridges not checked
B19: SEQ ID NO: 63 (peptide)
peptide: Palmitoyl-KGCRFGTCTVQKLAHQIYQFTDKDKDNVAPRSKSSPHSY-NH2
modifications: ends and bridges not checked
B20: SEQ ID NO: 57 (peptide)
peptide: Ac-VGCRFGTCTVQKLAHQIYQFTPAGRQDSAPVDPSSPHSY-NH2
modifications: ends and bridges not checked
B21: SEQ ID NO: 38 (peptide)
peptide: Palmitoyl-KTKKTLRTGCRFGTCTVQKLAHQIYQFTDKDKDNSAPVDPSSPHSY-NH2
modifications: ends and bridges not checked
B22: SEQ ID NO: 42 (peptide)
peptide: TKKTLRTGCRFGTCTVQKLAHQIYQFTDKDKDNVAPVDPSSPHSY
modifications: miniPEG- at N-terminus; K(Pal) at position 2 (miniPEG-TK(Pal)K...); -NH2
B23: SEQ ID NO: 43 (peptide)
peptide: [AEEA]K(Palmitoyl)CRFGTCTVQKLAHQIYQFTDKDKDNSAPVDPSSPHSY-NH2
modifications: ends and bridges not checked
B24: SEQ ID NO: 213 (peptide)
peptide: KGCRFGTCTVQKLAHQIYQFTDKDVAPRSKISPQGY
modifications: miniPEG- at N-terminus; K(PAL); (D-Ser) in ...VAPR(D-Ser)KISPQGY; -NH2
B25: SEQ ID NO: 214 (peptide)
peptide: B24 peptide
modifications: miniPEG- at N-terminus; K(PAL); (D-Gln) in ...KISP(D-Gln)GY; -NH2
B26: SEQ ID NO: 211 (peptide)
peptide: B24 peptide
modifications: miniPEG- at N-terminus; K(PAL); (D-Val) in ...GTCT(D-Val)QKL...; -NH2
B27: SEQ ID NO: 46 (peptide)
peptide: [AEEA]K(Palmitoyl)GCRFGTCTVQKLAHQIYQFTDKDKDSAPVDPSSPHSY-NH2
modifications: ends and bridges not checked
B28: SEQ ID NO: 59 (peptide)
peptide: Ac-KGCRFGTCTVQKLAHQIYQFTDKDKDNSAPVDPSSPHSY-NH2
modifications: ends and bridges not checked
B29: SEQ ID NO: 145 (peptide)
peptide: YAGFLKVQKLSAPVDPSSPHSY
modifications: Ace- at N-terminus; (D-Ala) and (D-Leu) in Y(D-Ala)GF(D-Leu); miniPEG before K(Pal); K(Pal); -NH2
B30: SEQ ID NO: 34 (peptide)
peptide: Palmitoyl-KGCRFGTCTVQKLAHQIYQFTDKDKDNVAPVDPSSPHSY-NH2
modifications: ends and bridges not checked
B31: SEQ ID NO: 51 (peptide)
peptide: [AEEA]K(Palmitoyl)GCRFGTCTVQKLAHQIYQFTDKDKQDSAPVDPSSPHSY-NH2
modifications: ends and bridges not checked
B32: SEQ ID NO: 151 (peptide)
peptide: KGCRFGTCTVQKLAHQIYQFTDKDKDNVAPRSKISPQGY
modifications: Ace-PEG3- at N-terminus; K(Hexadecanoyl-isoGlu); -NH2
B33: SEQ ID NO: 156 (peptide)
peptide: B32 peptide
modifications: Ace-PEG3- at N-terminus; K([19-carboxy-nonadecanoyl]-PEG3-isoGlu); -NH2
B34: SEQ ID NO: 155 (peptide)
peptide: B32 peptide
modifications: Ace-PEG3- at N-terminus; K([19-carboxy-nonadecanoyl]-isoGlu); -NH2
B35: SEQ ID NO: 73 (peptide)
peptide: B32 peptide
modifications: Pal- at N-terminus; K(Pal); -NH2
B36: SEQ ID NO: 36 (peptide)
peptide: Palmitoyl-KGCRFGTCTVQKLAHQIYQFTDKGRQDSAPVDPSSPHSY-NH2
modifications: ends and bridges not checked

Experiments:
Assay in all cases: cell-based or functional assay
CLR/RAMP2 receptor = CLR/RAMP2 receptor (UniProt Q16602 23-461; O60895 43-175, limits assumed)
CLR/RAMP1 receptor [1] = molecular target: T1, CLR/RAMP1 receptor (UniProt Q16602 23-461; O60894 27-148, limits assumed)
CLR/RAMP1 receptor [2] = molecular target: T1, CLR/RAMP1 receptor; remark: listed apart in the source

T1 sequence (Q16602 23-461 limits assumed, chain 1 of 2): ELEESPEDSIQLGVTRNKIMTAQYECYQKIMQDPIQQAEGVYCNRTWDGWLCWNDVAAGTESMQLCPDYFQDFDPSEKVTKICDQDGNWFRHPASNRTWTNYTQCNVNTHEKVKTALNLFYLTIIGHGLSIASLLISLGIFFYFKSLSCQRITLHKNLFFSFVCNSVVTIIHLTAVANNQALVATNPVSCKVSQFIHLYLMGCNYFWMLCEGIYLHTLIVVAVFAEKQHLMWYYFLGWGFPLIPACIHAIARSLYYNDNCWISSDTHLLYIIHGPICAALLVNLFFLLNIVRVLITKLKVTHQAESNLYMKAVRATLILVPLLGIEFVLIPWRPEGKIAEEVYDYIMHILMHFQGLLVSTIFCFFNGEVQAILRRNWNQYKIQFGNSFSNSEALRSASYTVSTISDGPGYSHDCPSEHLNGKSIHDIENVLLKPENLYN
T1 sequence (O60894 27-148 limits assumed, chain 2 of 2): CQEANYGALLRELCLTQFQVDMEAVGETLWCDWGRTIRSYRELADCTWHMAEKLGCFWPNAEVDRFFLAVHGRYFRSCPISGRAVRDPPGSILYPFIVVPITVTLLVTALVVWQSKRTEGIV
CLR/RAMP2 receptor, sequence (Q16602 23-461 limits assumed, chain 1 of 2): as the sequence (Q16602 23-461 limits assumed, chain 1 of 2) above
CLR/RAMP2 receptor, sequence (O60895 43-175 limits assumed, chain 2 of 2): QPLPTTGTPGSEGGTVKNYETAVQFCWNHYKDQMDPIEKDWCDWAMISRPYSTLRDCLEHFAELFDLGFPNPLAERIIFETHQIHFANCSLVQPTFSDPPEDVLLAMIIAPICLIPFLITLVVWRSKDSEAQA

Binder | CLR/RAMP2 EC50 (CLR/RAMP2 receptor) [nM] | CLR/RAMP1 EC50 (CLR/RAMP1 receptor [1]) [nM] | other results
B1 | 0.9 | 0.8 | –
B2 | 0.3 | 0.1 | –
B3 | – | – | CLR/RAMP2 Max Activity (CLR/RAMP2 receptor): 102 % of positive control; CLR/RAMP1 Max Activity (CLR/RAMP1 receptor [1]): 69 % of positive control
B4 | 3 | 16 | –
B5 | 0.9 | 0.4 | –
B6 | 0.6 | 0.4 | –
B7 | 6.4 | 43 | –
B8 | – | – | CLR/RAMP1 Max Activity (CLR/RAMP1 receptor [1]): 2 % of positive control
B9 | 17 | 224 | –
B10 | 17 | 771 | –
B11 | 1 | 2 | –
B12 | 1 | 0.8 | –
B13 | 19 | 234 | –
B14 | 0.2 | 0.1 | –
B15 | 0.4 | 0.3 | –
B16 | 0.4 | – | CLR/RAMP2 Max Activity (CLR/RAMP2 receptor): 64 % of positive control
B17 | – | – | CLR/RAMP1 IC50 (CLR/RAMP1 receptor [2]): < 0.5 nM; CLR/RAMP1 Max Activity (antagonist) (CLR/RAMP1 receptor [2]): 102 % of positive control
B18 | 0.5 | 0.2 | –

Binder | CLR/RAMP2 EC50 (CLR/RAMP2 receptor) [nM] | CLR/RAMP1 EC50 (CLR/RAMP1 receptor [1]) [nM] | other results
B19 | 7 | 180 | –
B20 | 149 | 909 | –
B21 | 0.7 | 0.5 | –
B22 | 0.2 | – | –
B23 | 0.2 | 0.5 | CLR/RAMP2 Max Activity (CLR/RAMP2 receptor): 30 % of positive control; CLR/RAMP1 Max Activity (CLR/RAMP1 receptor [1]): 39 % of positive control
B24 | 0.7 | – | CLR/RAMP2 Max Activity (CLR/RAMP2 receptor): 107 % of positive control
B25 | 0.4 | – | CLR/RAMP2 Max Activity (CLR/RAMP2 receptor): 99 % of positive control
B26 | 0.9 | 8 | CLR/RAMP2 Max Activity (CLR/RAMP2 receptor): 22 % of positive control
B27 | 0.5 | – | CLR/RAMP2 Max Activity (CLR/RAMP2 receptor): 104 % of positive control
B28 | 18 | 31 | –
B29 | – | – | CLR/RAMP1 IC50 (CLR/RAMP1 receptor [2]): < 0.5 nM; CLR/RAMP1 Max Activity (antagonist) (CLR/RAMP1 receptor [2]): 99 % of positive control
B30 | 0.7 | 0.2 | –
B31 | 0.3 | 0.2 | CLR/RAMP1 Max Activity (CLR/RAMP1 receptor [1]): 65 % of positive control
B32 | – | 0.5 | –
B33 | – | 0.8 | CLR/RAMP1 Max Activity (CLR/RAMP1 receptor [1]): 88 % of positive control
B34 | – | 0.6 | –
B35 | 49 | 34 | –
B36 | 0.9 | 0.6 | –
